From patent US20020049180

Experiments:
GST-Chk2(1-222) = GST-Chk2(1-222) (UniProt O96017)
[1] = target: GST-fusion protein containing amino acids 227-325 of KIAA0175 (UniProt Q14680)
[2] = target: GST-fusion protein containing amino acids 327-517 of KIAA0175 (UniProt Q14680)
[3] = target: GST-fusion protein containing amino acids 42-182 of KIAA0175 (UniProt Q14680)
GST-hDM2 (330-491) = GST-hDM2 (330-491) (UniProt Q00987)
GST-p53 (1-106) = GST-p53 (1-106) (UniProt P04637)
[4] = target: KIAA0175 (327-517) with serine 391 mutated to alanine (UniProt Q14680)

## Ataxia telangiectasia mutated (ATM)
GST-Chk2(1-222)
  in vitro phosphorylation by ATM immunoprecipitates: KIAA0175 (327-517) phosphorylation was comparable to that seen with several known substrates of ATM included in the same assay, ... GST-Chk2(1-222)
[1]
  in vitro phosphorylation by ATM immunoprecipitates: amino acids 227-325 with no SQ sites, were not phosphorylated
[2]
  in vitro phosphorylation by ATM immunoprecipitates: A fusion including amino acids 327-517 harboring S^391Q was a substrate for ATM
[3]
  in vitro phosphorylation by ATM immunoprecipitates: amino acid 42-182 (containing S100Q and S^125Q) ... were not phosphorylated
GST-hDM2 (330-491)
  in vitro phosphorylation by ATM immunoprecipitates: KIAA0175 (327-517) phosphorylation was comparable to that seen with several known substrates of ATM included in the same assay, ... GST-hDM2 (330-491)
GST-p53 (1-106)
  in vitro phosphorylation by ATM immunoprecipitates: KIAA0175 (327-517) phosphorylation was comparable to that seen with several known substrates of ATM included in the same assay, GST-p53 (1-106)
[4]
  irradiation induced phosphorylation by ATM: Mutation of serine 391 to alanine completely abolished the irradiation induced phosphorylation by ATM
